This sample holds only a part of the variants without activity.
B1: TPR 5TU (parent)
chain: GGAUCUUCUCGAUCUAACAAAAAAGACAAAUCUGCCACAAAGCUUGAGAGCAUCUUCGGAUGCAGAGGCGGCAGCCUUCGGUGGCGCGAUAGCGCCAACGUUCUCAACUAUGACACGCAAAACGCGUGCUCCGUUGAAUGGAGUUUAUCAUG

Variants of: B1
Assay: polymerase ribozyme fitness, log enrichment relative to wild type (log ratio); higher = more active; in vitro selection for triplet polymerase activity
In short: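 Fitness is a logarithmic measure of how a genotype enriched relative to the wild type, with replicate averages weighted by inverse variance. The logarithm uses base 2, and enrichment came from Illumina sequencing of input and output libraries. Those libraries were PCR-built, transcribed mutants of each subunit of a heterodimeric triplet polymerase ribozyme, passed through one triplicate in vitro selection round that included frozen incubation at −7 °C, gel excision of extended constructs and streptavidin-bead capture. Genotypes were kept only if they had ≥10 input reads and ≥1 read per output.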

Compared with C18A U55G C85A C118U, G62U G94A is higher in “polymerase ribozyme fitness (log ratio)” value: -2.09 for the first, -1.25 for the second.

Compared with G94U G100U, C14G G48C U146A is lower in “polymerase ribozyme fitness (log ratio)” value: -3.85 for the first, -4.06 for the second.

Going from U56G A60G G84A to G11A A21U C87A, the “polymerase ribozyme fitness (log ratio)” value falls from -0.664 to ≤ -4.2.

First: C38U A52C A120U
Second: A49U U55G G58A C123A G126U U148A
The “polymerase ribozyme fitness (log ratio)” value of the first is higher: -1.22 for the first, ≤ -4.2 for the second.

A3G C38G G42U G59C G70C U78C C87A and G42U G50A C118U A122C cannot be ordered by “polymerase ribozyme fitness (log ratio)” value: ≤ -4.2 for the first, ≤ -4.2 for the second.

First: C27G A52C U53A A64G C69A U78A C79A C87G G94C C95A A142C
Second: C93G C114U
The “polymerase ribozyme fitness (log ratio)” value of the first is lower: ≤ -4.2 for the first, -3.97 for the second.

Going from C35U U78A G128A to U82A G83C C123U, the “polymerase ribozyme fitness (log ratio)” value rises from ≤ -4.2 to -1.12.

Going from U31A C54A G84U C85U to A19G A41C, the “polymerase ribozyme fitness (log ratio)” value rises from -2.6 to -1.52.

First: G50U C105U
Second: G48C C85U U102G U104A C118U C125A
The “polymerase ribozyme fitness (log ratio)” value of the first is higher: 0.638 for the first, -4.14 for the second.

First: C85U A115U C118A A120G
Second: C35G G50C U56A A64U G133C U148G
The “polymerase ribozyme fitness (log ratio)” value of the first is higher: -3.37 for the first, ≤ -4.2 for the second.

Going from C35U U55A U56A G92A A110U U135A G152C to G11A U82A, the “polymerase ribozyme fitness (log ratio)” value rises from ≤ -4.2 to -1.4.

First: U55A A115U U127G U135A U145A
Second: G25C A52C G84U
The “polymerase ribozyme fitness (log ratio)” value of the first is higher: -1.32 for the first, ≤ -4.2 for the second.

First: A98G G133C
Second: U61G G71U C87U G143A
The “polymerase ribozyme fitness (log ratio)” value of the first is higher: -1.69 for the first, ≤ -4.2 for the second.

C14U U31A G48C G67C A91U and G50C C87U A113C C116A G143U U145C cannot be ordered by “polymerase ribozyme fitness (log ratio)” value: ≤ -4.2 for the first, ≤ -4.2 for the second.

Compared with A12U A39U A73U G80A C93A G141U, G58C G140C is higher in “polymerase ribozyme fitness (log ratio)” value: ≤ -4.2 for the first, -4.02 for the second.

C10U C54U U55G and U13G U33G U56A A60U G143U cannot be ordered by “polymerase ribozyme fitness (log ratio)” value: ≤ -4.2 for the first, ≤ -4.2 for the second.

First: A30G C85U U134C
Second: U7A C18A U33G A66U G84A G100A G124C
The “polymerase ribozyme fitness (log ratio)” value of the first is higher: -3.93 for the first, ≤ -4.2 for the second.

G42A G48A A97G A138U and G42C C116G A120U A138G G141U G143A cannot be ordered by “polymerase ribozyme fitness (log ratio)” value: ≤ -4.2 for the first, ≤ -4.2 for the second.

C10A U15G G58A G86U A98G A138U and A89U A107U G133A A142G cannot be ordered by “polymerase ribozyme fitness (log ratio)” value: ≤ -4.2 for the first, ≤ -4.2 for the second.

Compared with C51U C95A U104C C116G, A19G C96U C123U is lower in “polymerase ribozyme fitness (log ratio)” value: -0.304 for the first, -0.681 for the second.

A52U C123G and U4C A49U G94A A106G C123U are within 0.2 log units of each other in “polymerase ribozyme fitness (log ratio)” value: -1.97 for the first, -1.94 for the second.

Compared with U55G G67C U78G G83U C93A U102A A121C, C105U A138U is higher in “polymerase ribozyme fitness (log ratio)” value: ≤ -4.2 for the first, -2.82 for the second.

Compared with C14A A41C G94C, U7C is higher in “polymerase ribozyme fitness (log ratio)” value: -2.95 for the first, -1.19 for the second.

First: A40U A47C C51U U82C C118G
Second: C95U A97U C99U G133U A150G
The “polymerase ribozyme fitness (log ratio)” value of the first is higher: -2.44 for the first, ≤ -4.2 for the second.

C87A C93G C108G and A29C A49C U61A A138C cannot be ordered by “polymerase ribozyme fitness (log ratio)” value: ≤ -4.2 for the first, ≤ -4.2 for the second.

C38A C76G G92C and C14G G42U G46C G92C A119U G128A cannot be ordered by “polymerase ribozyme fitness (log ratio)” value: ≤ -4.2 for the first, ≤ -4.2 for the second.

A21U A142U and U53A G58A C93U C116U are within 0.2 log units of each other in “polymerase ribozyme fitness (log ratio)” value: -0.552 for the first, -0.438 for the second.

Compared with A3G U15C C93G U146G, U56A C96G is higher in “polymerase ribozyme fitness (log ratio)” value: -2.23 for the first, -0.228 for the second.

First: U53C G58C C93U C96G G140A
Second: C5A U7G C32G A115U U146C
The “polymerase ribozyme fitness (log ratio)” value of the first is higher: -4.1 for the first, ≤ -4.2 for the second.

First: U45A G83C C105U C131G
Second: G83U C123A
The “polymerase ribozyme fitness (log ratio)” value of the first is lower: ≤ -4.2 for the first, -0.709 for the second.

Compared with A19C C27A A39C C79U C93A U102G G117C, C38G C57A A115C U144G is higher in “polymerase ribozyme fitness (log ratio)” value: -4.01 for the first, -1.02 for the second.

U53A G74A U77A C96U G126C and A52C C54U U78A C87U U135A cannot be ordered by “polymerase ribozyme fitness (log ratio)” value: ≤ -4.2 for the first, ≤ -4.2 for the second.

Going from C35G G71A C96G U139G to C114U G124U, the “polymerase ribozyme fitness (log ratio)” value rises from -3.91 to -3.13.

Compared with A24U G83U C85G G126U, A16G G83A is higher in “polymerase ribozyme fitness (log ratio)” value: ≤ -4.2 for the first, -0.814 for the second.

U9G G74A A91G C93U G141U and A17C G74U C85A A91G G92C C93G C118A A120C cannot be ordered by “polymerase ribozyme fitness (log ratio)” value: ≤ -4.2 for the first, ≤ -4.2 for the second.

Going from A40C U44A U102C U139A A142G A147C U148A A150G to U15G A47C, the “polymerase ribozyme fitness (log ratio)” value rises from ≤ -4.2 to -0.922.

C93U C123U U127C U135C and C63U C79G A91G A107G cannot be ordered by “polymerase ribozyme fitness (log ratio)” value: ≤ -4.2 for the first, ≤ -4.2 for the second.

A21G A29G G83C A98U and C87G A113C A138U U146C cannot be ordered by “polymerase ribozyme fitness (log ratio)” value: ≤ -4.2 for the first, ≤ -4.2 for the second.

G58C C85G U90A U139A G140U and A52G U55G G58A C95G U134A U139A cannot be ordered by “polymerase ribozyme fitness (log ratio)” value: ≤ -4.2 for the first, ≤ -4.2 for the second.

First: A89U A150C
Second: C76U C79A C93U C116A C118A
The “polymerase ribozyme fitness (log ratio)” value of the first is higher: -3.66 for the first, ≤ -4.2 for the second.

First: C43G G86C A137G
Second: U53A G136A
The “polymerase ribozyme fitness (log ratio)” value of the first is lower: ≤ -4.2 for the first, -0.321 for the second.

Compared with A49G C51G U78C C96G, U6C U53A G59A G83A U90G C118U C131U A137G A138C is lower in “polymerase ribozyme fitness (log ratio)” value: -4.14 for the first, ≤ -4.2 for the second.

From the RNAGym collection of RNA variant scans (doi:10.1073/pnas.2313332121)
